Measured values published in article PMC10598227, “Structural insights for selective disruption of Beclin 1 binding to Bcl-2” (Communications Biology, 2023).

Tests used:
Bcl-2(1-206) = target: T1, Bcl-2(1-206) (human, UniProt P10415 1-206); test: NMR titration; 1H-15N TROSY-HSQC spectra of 10-45 uM uniformly 15N-labelled Bcl-2 fragment without and with Beclin 1 BH3 peptide added from a d6-DMSO stock; 25 °C, 20 mM sodium phosphate pH 7.3, 1 mM TCEP, 7% D2O; conditions: both partners purified
T1 construct: vector analogous to that of human Bcl-2(1-218), isoform alpha; Uniformly 15N-labelled for NMR; Vector was a gift from Beth Levine, called analogous to the pSKB2 vector of Bcl-2(1-218); also called Bcl-2 fragment lacking the juxtamembrane region; Bcl-2(1-2-6); source: E. coli BL21 (DE3), purified (Ni-NTA, His6-tag cleaved with 3C protease, Superdex 75); not shown: His6, N-terminal, cleaved

Bcl-2(1-218) = target: T2, Bcl-2(1-218) (human, UniProt P10415 1-218); test: as above; conditions: both partners purified
T2 construct: Uniformly 15N-labelled for NMR. pSKB2 vector with HRV 3C cleavage site; also called cytoplasmic region of Bcl-2 (residues 1-218); Becl-2(1-218); source: E. coli BL21 (DE3), purified (Ni-NTA, His6-tag cleaved with 3C protease, Superdex 75); not shown: His6, N-terminal, cleaved
T2 sequence (P10415 1-218): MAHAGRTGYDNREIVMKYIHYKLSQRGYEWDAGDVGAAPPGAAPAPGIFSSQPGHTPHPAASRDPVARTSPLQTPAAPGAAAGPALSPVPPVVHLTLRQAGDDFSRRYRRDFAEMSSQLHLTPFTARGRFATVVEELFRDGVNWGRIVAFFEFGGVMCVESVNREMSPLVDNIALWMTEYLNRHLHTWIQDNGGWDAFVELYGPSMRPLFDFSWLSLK

T1 sequence (P10415 1-206): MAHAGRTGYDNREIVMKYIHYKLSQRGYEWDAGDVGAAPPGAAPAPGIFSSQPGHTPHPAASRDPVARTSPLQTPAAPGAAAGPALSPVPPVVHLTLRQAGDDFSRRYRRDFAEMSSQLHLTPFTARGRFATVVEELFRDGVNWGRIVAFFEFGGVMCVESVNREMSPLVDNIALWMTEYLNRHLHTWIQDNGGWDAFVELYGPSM

B1: Beclin 1 BH3 peptide (peptide)
peptide: DGGTMENLSRRLKVTGDLFDIMSGQT
notes: Beclin 1, human, residues 105-130 (BH3 domain); L-amino acid peptide, dissolved in d6-dimethylsulfoxide; also called Beclin 1 BH3 domain; source: synthetic peptide (Protein Chemistry Technology Core, UT Southwestern), HPLC purified
Bcl-2(1-206)
  binding result: binds
Bcl-2(1-218)
  binding result: binds
